Earlier results in patent publication US20060003347A1 (priority 2002, published 2006).

Experiments:
[1] = pH 8.5
[2] = literature

Row | Molecule | Rate of base-catalysed hydrolysis [1] [s⁻¹] | kcat [2] [s⁻¹]
1 | CCOP(=O)(OCC)Oc1ccc([N+](=O)[O-])cc1 [paraoxon] | 2.4e-07 | –
2 | acetylcholinesterase | – | 14000
3 | catalase | – | 4e+07
